From patent US20150329642A1 (Genmab, published 2015)
Substitutions are numbered along the chain they refer to. Where “and” joins values, the source holds several entries; their conditions need not be identical. Equal entries are not always repeated. Each block holds one binder with its values, some of them ahead of it.

Columns and labels:
[1] = target: T1, recombinant human c-Met extracellular domain (R&D systems) (human, UniProt P08581 25-932); test: competition ELISA, residual Europium-HGF signal at 615 nm at the lower plateau of the fit; sheet prints no competing mAb ~66000, no HGF-Europium ~600; lower panel
T1 construct: extracellular domain; Bought reagent; also called coated extracellular domain of c-Met; recombinant c-Met
Protocol: ELISA wells were coated overnight at 4° C. with 0.5 μg/mL recombinant human c-Met extracellular domain (R&D systems, Minneapolis, USA) diluted in PBS. Next, the ELISA wells were washed with PBST (PBS supplemented with 0.05% Tween-20 [Sigma-Aldrich, Zwijndrecht, The Netherlands]) and blocked for one hour at room temperature (RT) with PBST supplemented with 2% (v/v) chicken serum (Gibco, Paisley, Scotland). […] Mean fluorescence intensity at 615 nm was measured using the EnVision 2101 Multilabel reader (PerkinElmer) applying the following settings: Lance/Delfia dual mirror, emission filter 615, excitation filter 340 nm, delay time 400 μs, window 400 μs, 100 flashes, 2000 μs per cycle and bidirectional row-by-row reading. To determine IC₅₀ values, the binding curves were analyzed with non-linear regression (sigmoidal dose-response with variable slope, top-values constrained to a shared value for all data-sets) using GraphPad Prism V4.03 software (GraphPad Software, San Diego, Calif., USA).
FIG. 5 depicts representative examples of HGF binding inhibition curves of anti-c-Met antibodies for binding to the extracellular domain of recombinant human c-Met. 5D5 was used as positive control antibody. All anti-c-Met antibodies in the experiment shown were able to compete with Europium^{3±}-conjugated HGF for binding to recombinant c-Met. […] Without adding Europium³⁺-conjugated HGF, roughly ˜600 relative fluorescent units (RFU) were detected, indicating the signal when maximal inhibition is accomplished. When binding of Europium³⁺-conjugated HGF was not inhibited, approximately ˜66,000 RFU were detected.

[2] = target: T2, human c-Met, membrane-bound on cells (human, UniProt P08581 25-1390); test: flow cytometry on A431 cells (PE goat anti-human IgG); bottom panel
T2 construct: whole, on cells; A431 cells carry on average 30,000 copies of c-Met per cell (Qifi); also called c-Met expressed on A431 cells; c-Met on A549 cells
Protocol: (§1) The binding of anti-c-Met antibodies and monovalent forms thereof (also termed “UniBody molecules” herein, see Example 5) to A431 cells expressing membrane-bound c-Met (purchased at ATCC, CRL-1555) was tested using flow cytometry (FACS Canto II, BD Biosciences). […] Binding of anti-c-Met antibodies and UniBody molecules was detected using a Phycoerythrin-conjugated goat-anti-human IgG antibody (Jackson). IgG1-5D5 was used as positive control antibody, and HuMab-KLH was used as isotype control antibody. EC₅₀ values were determined by means of non-linear regression (sigmoidal dose-response with variable slope) using GraphPad Prism V4.03 software (GraphPad Software, San Diego, Calif., USA).
(§2) Also maximum binding levels were unchanged between IgG1's and UniBody molecules. For antibodies 005, 006, 008, 035, 045 and 058, on the other hand, a more than 2-fold […] as well as a decrease in maximum binding level was observed when comparing IgG1 with their UniBody counterpart. This was most likely due to the […] (Kd) of these antibodies (see Example 14).

[3] = target: T2, human c-Met, membrane-bound on cells; test: flow cytometry on A431 cells (PE goat anti-human IgG); second panel
Protocol: as §1, §2

[4] = target: T2, human c-Met, membrane-bound on cells; test: flow cytometry on A431 cells (PE goat anti-human IgG); top panel
Protocol: as §1, §2

[5] = target: T2, human c-Met, membrane-bound on cells; test: flow cytometry on A431 cells (PE goat anti-human IgG); third panel
Protocol: as §1, §2

[6] = target: T3, rhHGF R/Fc Chimera (R&D Systems; Cat.358MT/CF) (human, UniProt P08581 25-932); test: ELISA on coated rhHGF R/Fc Chimera
T3 construct: Bought reagent; Fc part of the bought chimera not given; not described
Protocol: c-Met binding properties of the mutants were tested in an ELISA. ELISA plate wells were coated overnight at 4° C. with rhHGF R/Fc Chimera (R&D Systems; Cat.358MT/CF) in PBS (1 μg/mL). Next, the wells were washed with PBST (PBS supplemented with 0.05% Tween-20 [Sigma-Aldrich, Zwijndrecht, The Netherlands]) and blocked for one hour at room temperature (RT) with PBSTC (PBST supplemented 2% [v/v] chicken serum [Gibco, Paisley, Scotland]). Subsequently, the wells were washed with PBST and incubated for one hour at RT with the anti-cMet antibodies and variants serially diluted in PBSTC (10 μg/mL in 4-fold dilutions). […] After washing, the reaction was visualized by a 15 min incubation with 2,2′-azino-bis(3-ethylbenzothiazoline-6-sulfonic acid) (ABTS: dilute one ABTS tablet in 50 mL ABTS buffer [Roche Diagnostics, Almere, The Netherlands]) at RT protected from light. The colorization was stopped by adding an equal volume of oxalic acid (Sigma-Aldrich, Zwijndrecht, The Netherlands). […] at 405 nm was measured on a microtiter plate reader (Biotek Instruments, Winooski, USA).

[7] = target: T2, human c-Met, membrane-bound on cells; test: flow cytometry on A431 cells (PE goat anti-human IgG); third panel; curve not saturated
Protocol: as §1, §2

B2: anti-c-Met HuMab 005 (IgG1) (antibody, V domains shown)
VH: QVQLVQSGAEVKKPGSSVKVSCKASGGTFSSYGFGWVRQAPGQGLEWMGRISPILGIANYAQMFQGRVTITADKSTSTAYMELSSLRSEDTAVYYCARDVGYDWPDTFDIWGQGTMVIVSS
VL: DIQMTQSPSSLSASVGDRVTITCRASQGISSWLAWYQQKPEKAPKSLIYAASSLQSGVPSRFSGGGSGTDFTLTISSLQPEDFATYYCQQYNSFPPTFGQGTKVEIK
notes: also called TH1016-005; PC1016-005
EC50 [3]: 1.56 nM

B4: IgG1-1016-022 (antibody, V domains shown)
VH: QVQLVESGGGVVQPGRSLRLSCAASGFTFSSYAMHWVRQAPGKGLEWVAVISYDGSNKYYADSVKGRFTISRDNSKNTLYLQMNSLRAEDTAVYYCARELLWFGELWGYFDLWGRGTLVTVSS
VL: B2 VL with L11V, Q38H, E41G, S46L, G65S, Q90E, Y91A, N92S, P95T, P96W
notes: also called TH1016-022; PC1016-022
EC50 [3]: 1.1 nM

B5: anti-c-Met HuMab 006 (IgG1) (antibody, V domains shown)
VH: B2 VH with Y32F, F34I, S52F, I57T, S84T, W104S, P105A, T107A, I118T
VL: B2 VL with G65S, F94Y
notes: also called TH1016-006; PC1016-006
EC50 [4]: 2.32 nM | EC50 [3]: 1.92 nM

B7: IgG1-1016-069 (antibody, V domains shown)
VH: QVQLVQSGAEVKKPGASVKVSCETSGYTFTSYGISWVRQAPGHGLEWMGWISAYNGYTNYAQKLQGRVTMTTDTSTSTAYMELRSLRSDDTAVYYCARDLRGTNYFDYWGQGTLVTVSS
VL: DIQMTQSPSSVSASVGDRVTITCRASQGISNWLAWFQHKPGKAPKLLIYAASSLLSGVPSRFSGSGSGTDFTLTISSLQPEDFATYYCQQANSFPITFGQGTRLEIK
notes: also called clone 069; TH1016-069
EC50 [6]: 0.0495 µg/mL and 0.0454 µg/mL | Bottom [1]: 15000 RFU | EC50 [2]: 0.547 nM

B9: IgG1-024 (antibody, V domains shown)
VH: EVQLLESGGGLVQPGGSLRLSCVASGFTFSSYAMSWVRQAPGKGLEWVSAISGSSGGSTYYVDSVKGRFTISRANSKNTLYLQMNSLRAEDTAVYYCAKDLDRGWMGYFGYWGQGTLVTVSS
VL: DIQMTQSPSSVSASVGDRVTITCRASQGISSWLAWYQHKPGKAPKLLIYAASSLQSGVPSRFSGSGSGTDFTLTISSLQPEDFATYYCQQANSFPTFGQGTRLEIK
notes: also called TH1016-024; PC1016-024
EC50 [7]: ~3.19 nM

Results, then the binder that gave them:

Bottom [1]: 8380 RFU | EC50 [2]: 1.03 nM
B1: anti-c-Met HuMab 101 (IgG1) (antibody, V domains shown)
VH: QVQLVQSGGEVKKPGASVKVSCKASGYTFTRHGITWVRQAPGQGLEWMGWISADNGNTNYAQKFQDRVTMTTDTSTSTAYMELRSLRSDDTAVYFCARVFRYFDWLLPYFDYWGQGTLVTVST
VL: not shown

Bottom [1]: 12700 RFU | EC50 [2]: 0.9 nM
B3: anti-c-Met HuMab 098 (IgG1) (antibody, V domains shown)
VH: QVQLVQSGAEVKKPGASVKVSCKASGYTFTNFGISWVRQAPGQGLEWMGWISAFNGHTDYSQKVQGRVTMTTDTSTSTAYMELRSLRSDDTAVFYCARSHYYGSGSPFDYWGQGTLVTVSS
VL: B2 VL with S31N, G65S, Q89H, N92K, F94Y, P96W
notes: also called TH1016-098; PC1016-098

EC50 [5]: 0.692 nM
B6: anti-c-Met HuMab 045 (IgG1) (antibody, V domains shown)
VH: EVQLLESGGGLVQPGGSLRLSCAASGFTFSSYAMSWVRQAPGKGLEWVSVISGSGGITYYADSVKGRFTISRDNSKNTLYLQMNSLRAEDTAVYYCARDRGWGSDYWGQGTLVTVSS
VL: EIVLTQSPATLSLSPGERATLSCRASQSVSSYLAWYQQKPGQAPRLLIYDASNRATGIPARFSGSGSGTDFTLTISSLEPEDFAVYYCQQRSNWPFTFGPGTKVDIK
notes: also called TH1016-045; PC1016-045

Bottom [1]: 16300 RFU | EC50 [2]: 0.679 nM
B8: anti-c-Met HuMab 181 (IgG1) (antibody, V domains shown)
VH: B7 VH with E23K, T24A, H43Q, A53T, N104A
VL: B7 VL with F36Y
notes: also called TH1016-181; PC1016-181

EC50 [3]: 0.554 nM
B10: anti-c-Met HuMab 008 (IgG1) (antibody, V domains shown)
VH: EVQLVQSGAEVKKPGESLKISCKGSGYSFTSYWIGWVRQMPGKGLEWMGIIYPGDSETRYSPSFQGQVTISADKSISTAYLQWSSLKASDTAMYYCARQEITGEFDYWGQGTLVTVSS
VL: AIQLTQSPSSLSASVGDRVTITCRASQGISSALAWYQQKPGKAPKLLIYDASSLESGVPSRFSGSGSGTDFTLTISSLQPEDFATYYCQQFNSYPRTFGQGTKVEIK
notes: also called TH1016-008; PC1016-008

EC50 [5]: 1.78 nM
B11: anti-c-Met HuMab 035 (IgG1) (antibody, V domains shown)
VH: B10 VH with E57D, S84N
VL: AIQLTQSPSSLSASVGDRVTITCRASQGISSALAWYQQKPGKAPKLLIYDASSLESGVPSRFSGSGSGTDFTLTISSLQPEDFATYYCQQFNSYPMYTFGQGTKLEIK
notes: also called P1016-035; TH1016-035-D09
